Measured values reported in paper PMC7966800, “Adiponectin-expressing Treg facilitate T lymphocyte development in thymic nurse cell complexes” (Communications Biology, 2021).
Values joined by “and” are separate entries in the source; they are usually repeats but may differ in a detail not shown here. Identical values can stand only once.

Target: the molecule itself
Experiment: non-reducing SDS-PAGE with Western blotting; thymus lysate of WT mice; non-reducing SDS-PAGE, polyclonal antibody to murine adiponectin

B1: Adiponectin (natural protein, mouse (endogenous in thymus), UniProt Q60994 18-247, looked up)
chain: EDDVTTTEELAPALVPPPKGTCAGWMAGIPGHPGHNGTPGRDGRDGTPGEKGEKGDAGLLGPKGETGDVGMTGAEGPRGFPGTPGRKGEPGEAAYVYRSAFSVGLETRVTVPNVPIRFTKIFYNQQNHYDGSTGKFYCNIPGLYYFSYHITVYMKDVKVSLFKKDKAVLFTYDQYQEKNVDQASGSVLLHLEVGDQVWLQVYGDGDHNGLYADNVNDSTFTGFLLYHDTN
notes: adiponectin, mouse, endogenous protein of thymus and thymic nurse cell (TNC) complexes; found as trimer, hexamer and HMW oligomers; Endogenous secreted glycoprotein; detected with a polyclonal antibody against murine adiponectin; also called Adn; ADIPOQ; source: endogenous, thymus tissue and TNC complexes of wild-type mice, in lysate
stoichiometry N: 3 and 6
